Data published in IntAct's records for PubMed 34606829.

B1: ALK tyrosine kinase receptor (Homo sapiens), Q9UM73 (parent)
chain: MGAIGLLWLLPLLLSTAAVGSGMGTGQRAGSPAAGPPLQPREPLSYSRLQRKSLAVDFVVPSLFRVYARDLLLPPSSSELKAGRPEARGSLALDCAPLLRLLGPAPGVSWTAGSPAPAEARTLSRVLKGGSVRKLRRAKQLVLELGEEAILEGCVGPPGEAAVGLLQFNLSELFSWWIRQGEGRLRIRLMPEKKASEVGREGRLSAAIRASQPRLLFQIFGTGHSSLESPTNMPSPSPDYFTWNLTWIMKDSFPFLSHRSRYGLECSFDFPCELEYSPPLHDLRNQSWSWRRIPSEEASQMDLLDGPGAERSKEMPRGSFLLLNTSADSKHTILSPWMRSSSEHCTLAVSVHRHLQPSGRYIAQLLPHNEAAREILLMPTPGKHGWTVLQGRIGRPDNPFRVALEYISSGNRSLSAVDFFALKNCSEGTSPGSKMALQSSFTCWNGTVLQLGQACDFHQDCAQGEDESQMCRKLPVGFYCNFEDGFCGWTQGTLSPHTPQWQVRTLKDARFQDHQDHALLLSTTDVPASESATVTSATFPAPIKSSPCELRMSWLIRGVLRGNVSLVLVENKTGKEQGRMVWHVAAYEGLSLWQWMVLPLLDVSDRFWLQMVAWWGQGSRAIVAFDNISISLDCYLTISGEDKILQNTAPKSRNLFERNPNKELKPGENSPRQTPIFDPTVHWLFTTCGASGPHGPTQAQCNNAYQNSNLSVEVGSEGPLKGIQIWKVPATDTYSISGYGAAGGKGGKNTMMRSHGVSVLGIFNLEKDDMLYILVGQQGEDACPSTNQLIQKVCIGENNVIEEEIRVNRSVHEWAGGGGGGGGATYVFKMKDGVPVPLIIAAGGGGRAYGAKTDTFHPERLENNSSVLGLNGNSGAAGGGGGWNDNTSLLWAGKSLQEGATGGHSCPQAMKKWGWETRGGFGGGGGGCSSGGGGGGYIGGNAASNNDPEMDGEDGVSFISPLGILYTPALKVMEGHGEVNIKHYLNCSHCEVDECHMDPESHKVICFCDHGTVLAEDGVSCIVSPTPEPHLPLSLILSVVTSALVAALVLAFSGIMIVYRRKHQELQAMQMELQSPEYKLSKLRTSTIMTDYNPNYCFAGKTSSISDLKEVPRKNITLIRGLGHGAFGEVYEGQVSGMPNDPSPLQVAVKTLPEVCSEQDELDFLMEALIISKFNHQNIVRCIGVSLQSLPRFILLELMAGGDLKSFLRETRPRPSQPSSLAMLDLLHVARDIACGCQYLEENHFIHRDIAARNCLLTCPGPGRVAKIGDFGMARDIYRASYYRKGGCAMLPVKWMPPEAFMEGIFTSKTDTWSFGVLLWEIFSLGYMPYPSKSNQEVLEFVTSGGRMDPPKNCPGPVYRIMTQCWQHQPEDRPNFAIILERIEYCTQDPDVINTALPIEYGPLVEEEEKVPVRPKDPEGVPPLLVSQQAKREEERSPAAPPPLPTTSSGKAAKKPTAAEISVRVPRGPAVEGGHVNMAFSQSNPPSELHKVHGSRNKPTSLWNPTYGSWFTEKPTKKNNPIAKKEPHDRGNLGLEGSCTVPPNVATGRLPGASLLLEPSSLTANMKEVPLFRLRHFPCGNVNYGYQQQGLPLEAATAPGAGHYEDTILKSKNSMNQPGP
partner: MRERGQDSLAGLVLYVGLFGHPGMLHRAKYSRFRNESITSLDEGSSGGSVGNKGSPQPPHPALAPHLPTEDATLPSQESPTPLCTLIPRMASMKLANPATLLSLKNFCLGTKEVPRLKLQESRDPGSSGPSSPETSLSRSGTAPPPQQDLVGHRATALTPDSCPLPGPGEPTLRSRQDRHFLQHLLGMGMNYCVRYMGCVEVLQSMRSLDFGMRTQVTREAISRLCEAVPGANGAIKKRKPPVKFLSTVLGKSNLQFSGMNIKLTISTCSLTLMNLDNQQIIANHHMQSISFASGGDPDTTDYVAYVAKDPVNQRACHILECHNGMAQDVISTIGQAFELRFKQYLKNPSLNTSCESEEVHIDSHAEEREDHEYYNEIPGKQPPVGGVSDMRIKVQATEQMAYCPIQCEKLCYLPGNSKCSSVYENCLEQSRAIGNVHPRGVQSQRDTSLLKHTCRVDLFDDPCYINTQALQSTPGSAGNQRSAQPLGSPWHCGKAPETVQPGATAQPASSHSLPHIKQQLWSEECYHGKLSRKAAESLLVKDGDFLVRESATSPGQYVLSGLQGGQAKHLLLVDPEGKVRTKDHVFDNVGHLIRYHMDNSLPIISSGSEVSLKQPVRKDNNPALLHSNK
B2: ALK tyrosine kinase receptor (Homo sapiens), Q9UM73 (parent)
chain: B1 chain
partner: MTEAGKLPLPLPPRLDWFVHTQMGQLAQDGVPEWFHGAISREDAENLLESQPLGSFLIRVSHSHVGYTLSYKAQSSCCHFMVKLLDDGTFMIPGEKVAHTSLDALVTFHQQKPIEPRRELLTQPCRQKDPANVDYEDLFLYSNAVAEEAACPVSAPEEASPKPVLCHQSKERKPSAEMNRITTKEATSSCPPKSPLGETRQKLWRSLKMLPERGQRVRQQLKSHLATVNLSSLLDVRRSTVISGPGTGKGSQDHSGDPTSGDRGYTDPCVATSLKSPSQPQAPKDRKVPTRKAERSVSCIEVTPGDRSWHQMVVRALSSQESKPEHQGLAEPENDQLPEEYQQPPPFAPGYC
B3: ALK tyrosine kinase receptor (Homo sapiens), Q9UM73 (parent)
chain: B1 chain
partner: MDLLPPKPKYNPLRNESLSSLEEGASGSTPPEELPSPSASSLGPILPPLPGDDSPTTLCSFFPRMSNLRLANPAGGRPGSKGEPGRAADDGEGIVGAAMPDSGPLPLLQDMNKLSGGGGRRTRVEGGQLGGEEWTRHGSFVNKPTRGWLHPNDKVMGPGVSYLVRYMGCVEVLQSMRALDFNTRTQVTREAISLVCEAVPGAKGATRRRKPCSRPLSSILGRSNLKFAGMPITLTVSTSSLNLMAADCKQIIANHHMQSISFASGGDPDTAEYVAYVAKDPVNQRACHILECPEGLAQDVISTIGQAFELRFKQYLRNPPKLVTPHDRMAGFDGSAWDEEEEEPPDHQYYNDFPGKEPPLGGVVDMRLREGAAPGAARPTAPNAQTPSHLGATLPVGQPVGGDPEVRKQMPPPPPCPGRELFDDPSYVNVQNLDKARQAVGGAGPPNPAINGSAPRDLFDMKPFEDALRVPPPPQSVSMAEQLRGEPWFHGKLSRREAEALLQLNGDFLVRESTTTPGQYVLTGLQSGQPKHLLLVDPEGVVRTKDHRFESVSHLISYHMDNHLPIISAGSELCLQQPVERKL
B4: ALK tyrosine kinase receptor (Homo sapiens), Q9UM73 (parent)
chain: B1 chain
partner: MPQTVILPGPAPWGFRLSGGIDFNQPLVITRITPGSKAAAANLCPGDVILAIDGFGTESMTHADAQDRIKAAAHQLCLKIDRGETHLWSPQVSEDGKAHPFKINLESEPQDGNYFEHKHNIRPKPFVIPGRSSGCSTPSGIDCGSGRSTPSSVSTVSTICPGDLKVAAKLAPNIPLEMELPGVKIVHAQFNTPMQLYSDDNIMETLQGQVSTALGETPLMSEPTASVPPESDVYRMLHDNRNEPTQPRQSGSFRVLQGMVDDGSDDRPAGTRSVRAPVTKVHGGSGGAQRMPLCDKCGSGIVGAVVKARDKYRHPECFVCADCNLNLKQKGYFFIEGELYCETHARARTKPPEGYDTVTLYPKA
B5: ALK tyrosine kinase receptor (Homo sapiens), Q9UM73 (parent)
chain: B1 chain
partner: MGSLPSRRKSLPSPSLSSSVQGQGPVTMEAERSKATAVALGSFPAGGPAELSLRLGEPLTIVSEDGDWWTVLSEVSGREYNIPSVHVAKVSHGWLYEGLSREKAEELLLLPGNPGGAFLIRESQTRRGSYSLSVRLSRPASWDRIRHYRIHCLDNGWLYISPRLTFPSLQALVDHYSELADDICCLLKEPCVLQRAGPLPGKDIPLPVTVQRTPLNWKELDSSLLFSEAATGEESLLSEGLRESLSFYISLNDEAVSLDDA
B6: ALK tyrosine kinase receptor (Homo sapiens), Q9UM73 (parent)
chain: B1 chain
partner: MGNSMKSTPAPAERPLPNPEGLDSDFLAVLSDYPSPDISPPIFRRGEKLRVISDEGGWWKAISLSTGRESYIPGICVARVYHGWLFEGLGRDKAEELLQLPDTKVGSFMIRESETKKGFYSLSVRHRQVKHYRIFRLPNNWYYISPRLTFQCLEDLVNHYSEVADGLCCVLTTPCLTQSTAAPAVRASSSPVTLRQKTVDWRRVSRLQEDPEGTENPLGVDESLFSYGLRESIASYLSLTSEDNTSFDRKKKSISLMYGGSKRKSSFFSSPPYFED
B7: ALK tyrosine kinase receptor (Homo sapiens), Q9UM73 (parent)
chain: B1 chain
partner: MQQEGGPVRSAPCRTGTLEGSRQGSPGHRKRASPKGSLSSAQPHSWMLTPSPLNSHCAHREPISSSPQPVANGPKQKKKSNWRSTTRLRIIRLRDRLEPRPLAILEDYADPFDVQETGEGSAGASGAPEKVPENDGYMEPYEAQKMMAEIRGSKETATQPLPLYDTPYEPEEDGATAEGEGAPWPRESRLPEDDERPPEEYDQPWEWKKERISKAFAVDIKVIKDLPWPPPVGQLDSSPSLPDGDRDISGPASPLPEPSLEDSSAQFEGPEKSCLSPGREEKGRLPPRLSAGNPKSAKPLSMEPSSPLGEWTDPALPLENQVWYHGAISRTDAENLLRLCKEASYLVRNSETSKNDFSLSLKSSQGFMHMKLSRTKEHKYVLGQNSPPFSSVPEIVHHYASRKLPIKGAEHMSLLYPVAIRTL
B8: ALK tyrosine kinase receptor (Homo sapiens), Q9UM73 (parent)
chain: B1 chain
partner: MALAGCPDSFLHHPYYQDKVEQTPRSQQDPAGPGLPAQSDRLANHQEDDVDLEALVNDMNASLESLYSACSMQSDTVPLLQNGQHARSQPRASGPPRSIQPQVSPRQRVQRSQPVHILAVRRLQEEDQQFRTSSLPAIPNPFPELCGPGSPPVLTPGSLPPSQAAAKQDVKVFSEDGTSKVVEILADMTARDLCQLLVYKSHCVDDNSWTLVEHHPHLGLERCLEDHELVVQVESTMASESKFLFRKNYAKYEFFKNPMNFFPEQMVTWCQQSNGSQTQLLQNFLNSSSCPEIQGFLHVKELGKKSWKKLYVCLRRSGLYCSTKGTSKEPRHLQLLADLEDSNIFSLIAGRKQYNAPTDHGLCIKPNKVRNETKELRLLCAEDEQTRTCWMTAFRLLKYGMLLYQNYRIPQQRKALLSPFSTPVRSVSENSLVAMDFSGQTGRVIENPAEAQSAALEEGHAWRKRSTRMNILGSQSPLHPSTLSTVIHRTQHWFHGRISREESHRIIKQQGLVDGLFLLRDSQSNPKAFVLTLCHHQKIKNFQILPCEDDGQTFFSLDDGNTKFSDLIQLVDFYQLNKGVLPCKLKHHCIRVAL

Variants of: B1
Conditions: with shc4_human SHC4, Q6S5L8

| Variant | effect of a mutation on the interaction |
| --- | --- |
| F1245C | increasing interaction strength |
| L1196M | increasing interaction strength |
| I1250T | decreasing interaction strength |

Variants of: B2
Conditions: with hsh2d_human HSH2D

| Variant | effect of a mutation on the interaction |
| --- | --- |
| L1196M | increasing interaction strength |
| I1250T | decreasing interaction strength |
| F1245C | increasing interaction strength |

Variants of: B3
Conditions: with shc1_human SHC1, P29353

| Variant | effect of a mutation on the interaction |
| --- | --- |
| I1250T | decreasing interaction strength |
| F1245C | increasing interaction strength |
| L1196M | increasing interaction strength |

Variants of: B4
Conditions: with pdli3_human PDLIM3, Q53GG5

| Variant | effect of a mutation on the interaction |
| --- | --- |
| F1245C | increasing interaction strength |
| L1196M | increasing interaction strength |
| I1250T | decreasing interaction strength |

Variants of: B5
Conditions: with slap2_human SLA2, Q9H6Q3

| Variant | effect of a mutation on the interaction |
| --- | --- |
| L1196M | increasing interaction strength |
| F1245C | increasing interaction strength |
| I1250T | decreasing interaction strength |

Variants of: B6
Conditions: with slap1_human SLA

| Variant | effect of a mutation on the interaction |
| --- | --- |
| F1245C | increasing interaction strength |
| I1250T | decreasing interaction strength |
| L1196M | increasing interaction strength |

Variants of: B7
Conditions: with shf_human SHF

| Variant | effect of a mutation on the interaction |
| --- | --- |
| L1196M | increasing interaction strength |
| I1250T | decreasing interaction strength |
| F1245C | increasing interaction strength |

Variants of: B8
Conditions: with grb10_human GRB10, Q13322

| Variant | effect of a mutation on the interaction |
| --- | --- |
| I1250T | decreasing interaction strength |
